# Data published in patent publication US20180371086A1 (Gilead, published 2018).
# B1: PGT121.60 hIgG1/hLambda (antibody)
# heavy: QMQLQESGPGLVKPSETLSLTCSVSGASISDSYWSWIRRSPGKGLEWIGYVHKSGDTNYNPSLKSRVHLSLDTSKNQVSLSLTGVTAADSGKYYCARTLHGRRIYGIVAFNEWFTYFYMDVWGTGTQVTVSSASTKGPSVFPLAPSSKSTSGGTAALGCLVKDYFPEPVTVSWNSGALTSGVHTFPAVLQSSGLYSLSSVVTVPSSSLGTQTYICNVNHKPSNTKVDKKVEPKSCDKTHTCPPCPAPELLAGPDVFLFPPKPKDTLMISRTPEVTCVVVDVSHEDPEVKFNWYVDGVEVHNAKTKPREEQYNSTYRVVSVLTVLHQDWLNGKEYKCKVSNKALPLPEEKTISKAKGQPREPQVYTLPPSREEMTKNQVSLTCLVKGFYPSDIAVEWESNGQPENNYKTTPPVLDSDGSFFLYSKLTVDKSRWQQGNVFSCSVLHEALHSHYTQKSLSLSPGK
# light: not shown
# What was measured:
# [1] = molecular target: HIV-1 Env of virus MGRM-C-018 (HIV-1); assay: cell-based or functional assay
# [2] = molecular target: HIV-1 Env of virus MGRM-C-012 (HIV-1); assay: cell-based or functional assay
# [3] = molecular target: HIV-1 Env of virus MGRM-AG-009 (HIV-1); assay: cell-based or functional assay
# [4] = molecular target: HIV-1 Env of virus MGRM-F1-020 (HIV-1); assay: cell-based or functional assay
# [5] = molecular target: HIV-1 Env of virus MGRM-AG-001 (HIV-1); assay: cell-based or functional assay
# [6] = molecular target: HIV-1 Env of virus MGRM-AG-008 (HIV-1); assay: cell-based or functional assay
# [7] = molecular target: HIV-1 Env of virus MGRM-C-002 (HIV-1); assay: cell-based or functional assay
# [8] = molecular target: HIV-1 Env of virus MGRM-A-009 (HIV-1); assay: cell-based or functional assay
# [9] = molecular target: HIV-1 Env of virus MGRM-F1-006 (HIV-1); assay: cell-based or functional assay
# [10] = molecular target: HIV-1 Env of virus MGRM-Acute-B-003 (HIV-1); assay: cell-based or functional assay
# [11] = molecular target: HIV-1 Env of virus MGRM-G-001 (HIV-1); assay: cell-based or functional assay
# [12] = molecular target: HIV-1 Env of virus MGRM-C-023 (HIV-1); assay: cell-based or functional assay
# [13] = molecular target: HIV-1 Env of virus MGRM-F1-004 (HIV-1); assay: cell-based or functional assay
# [14] = molecular target: HIV-1 Env of virus MGRM-A-006 (HIV-1); assay: cell-based or functional assay
# [15] = molecular target: HIV-1 Env of virus MGRM-G-024 (HIV-1); assay: cell-based or functional assay
# [16] = molecular target: HIV-1 Env of virus MGRM-G-019 (HIV-1); assay: cell-based or functional assay
# [17] = molecular target: HIV-1 Env of virus MGRM-Chronic-B-006 (HIV-1); assay: cell-based or functional assay
# [18] = molecular target: HIV-1 Env of virus MGRM-C-028 (HIV-1); assay: cell-based or functional assay
# [19] = molecular target: HIV-1 Env of virus MGRM-Chronic-B-014 (HIV-1); assay: cell-based or functional assay
# [20] = molecular target: HIV-1 Env of virus MGRM-Acute-B-005 (HIV-1); assay: cell-based or functional assay
# [21] = molecular target: HIV-1 Env of virus MGRM-Acute-B-006 (HIV-1); assay: cell-based or functional assay
# [22] = molecular target: HIV-1 Env of virus MGRM-G-011 (HIV-1); assay: cell-based or functional assay
# [23] = molecular target: HIV-1 Env of virus MGRM-C-024 (HIV-1); assay: cell-based or functional assay
# [24] = molecular target: HIV-1 Env of virus MGRM-F1-013 (HIV-1); assay: cell-based or functional assay
# [25] = molecular target: HIV-1 Env of virus MGRM-Chronic-B-007 (HIV-1); assay: cell-based or functional assay
# [26] = molecular target: HIV-1 Env of virus MGRM-F1-015 (HIV-1); assay: cell-based or functional assay
# Human FcRn [27] = molecular target: T1, Human FcRn (human, UniProt P55899 24-297; P61769 21-119); assay: ELISA, FcRn coated on plate, pH 6.0
# T1 construct: also called neonatal Fc receptor
# Procedure: (§1) The binding of antibodies to FcRn of various antibody variants at different pHs was determined. A 96-well Maxisorp plate was coated with 100 ul of 5 μg/ml FcRn. The plate was incubated overnight at 4° C., and then blocked with 4% skim milk for 2 hr at room temperature after washing 3 times with 0.05% Tween 20 washing buffer. […] The plate was then washed 3 times and 100 μL of Fab-anti-human Fab-HRP or Goat anti-human IgG-HRP secondary antibody diluted in 4% skimmed milk was added. Plates were then incubated 50 min at room temperature, washed three times, and 100 μL fresh TMB substrate was added. Plates were developed for 3 minutes on bench with gentle shaking. Plate was quenched with 100 μL 1M HCl, shaken briefly, read at A450 on a spectramax m5 plate reader.
# Human FcRn [28] = molecular target: T1, Human FcRn; assay: ELISA, FcRn coated on plate; ratio of EC50 at pH 7.0 to pH 6.0
# Procedure: as §1
# [29] = molecular target: gp120 (HT593) expressed on human embryonic kidney (HEK) cells (HIV-1); assay: cell-based or functional assay
# Human FcRn [30] = molecular target: T1, Human FcRn; assay: ELISA, FcRn coated on plate, pH 7.0
# Procedure: as §1
# T1 sequence (P55899 24-297 limits assumed, chain 1 of 2): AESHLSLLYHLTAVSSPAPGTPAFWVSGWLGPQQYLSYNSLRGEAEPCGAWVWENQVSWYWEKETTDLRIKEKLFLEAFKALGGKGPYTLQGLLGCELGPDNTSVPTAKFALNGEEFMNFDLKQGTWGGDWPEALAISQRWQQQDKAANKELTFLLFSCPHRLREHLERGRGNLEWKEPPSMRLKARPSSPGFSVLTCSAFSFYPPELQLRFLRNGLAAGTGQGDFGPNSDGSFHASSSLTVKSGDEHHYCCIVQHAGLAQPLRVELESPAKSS
# T1 sequence (P61769 21-119 limits assumed, chain 2 of 2): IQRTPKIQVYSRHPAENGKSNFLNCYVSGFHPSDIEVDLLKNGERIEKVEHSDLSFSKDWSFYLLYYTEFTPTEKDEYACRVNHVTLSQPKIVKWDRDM
binder,measurement,setting,value
B1,PGT121.60 IC50,[1],10.3 µg/mL
same,PGT121.60 IC50,[2],0.0338 µg/mL
same,PGT121.60 IC50,[3],0.0868 µg/mL
same,PGT121.60 IC50,[4],0.041 µg/mL
same,PGT121.60 IC50,[5],1.44 µg/mL
same,PGT121.60 IC50,[6],1.71 µg/mL
same,PGT121.60 IC50,[7],0.0095 µg/mL
same,PGT121.60 IC50,[8],0.0074 µg/mL
same,PGT121.60 IC50,[9],2.33 µg/mL
same,PGT121.60 IC50,[10],0.0179 µg/mL
same,PGT121.60 IC50,[11],0.005 µg/mL
same,PGT121.60 IC50,[12],0.0044 µg/mL
same,PGT121.60 IC50,[13],0.547 µg/mL
same,PGT121.60 IC50,[14],4.05 µg/mL
same,PGT121.60 IC50,[15],0.0119 µg/mL
same,PGT121.60 IC50,[16],0.0091 µg/mL
same,PGT121.60 IC50,[17],0.002 µg/mL
same,PGT121.60 IC50,[18],0.744 µg/mL
same,PGT121.60 IC50,[19],0.133 µg/mL
same,PGT121.60 IC50,[20],0.0014 µg/mL
same,PGT121.60 IC50,[21],0.0966 µg/mL
same,PGT121.60 IC50,[22],1.91 µg/mL
same,PGT121.60 IC50,[23],0.0826 µg/mL
same,PGT121.60 IC50,[24],0.0871 µg/mL
same,PGT121.60 IC50,[25],2.55 µg/mL
same,PGT121.60 IC50,[26],11.6 µg/mL
same,EC50,Human FcRn [27],0.22 nM
same,Ratio pH 7.0/6.0,Human FcRn [28],355
same,"% ADCC Activity (ADCC reporter cell based assay; sample stressed at 25° C. for 4 weeks, relative to its untreated control)",[29],65%
same,EC50,Human FcRn [30],78 nM
